This is an account of results in patent US20200239585A1, “MODULATING THE IMMUNE RESPONSE USING ANTIBODY-DRUG CONJUGATES” (Seattle Genetics, Inc., priority 2017, published 2020).

One assay deals with CD30+ cell lines. The note with it: cited from earlier work.
Assay [1] concerns Hodgkin disease xenograft. The note with it: SCID mouse xenograft models of Hodgkin disease; cited from earlier work.
In assay [2] the test system is efflux pump activity of T cell subsets. In words: rhodamine 123 efflux assay. The format is cell-based, human. The note with it: 37° C., 5-hour time-course; FIG. 9D. On the procedure: Sensitivity of cells to many chemotherapies, including MMAE, is influenced by cell-intrinsic drug efflux activity. T cell subsets were evaluated for relative efflux pump activity using a rhodamine 123 efflux assay, following manufacturer's protocol (Chemicon International, Multidrug Resistance Direct Dye Efflux Assay). Enriched T cell populations were loaded with rhodamine 123, incubated in a 37° C. water bath, and were measured for loss of fluorescence over a 5-hour time-course by flow cytometry.

Assay [3] concerns inducible T regulatory cells (iTregs). In words: iTreg viability on in vitro proliferation with a titration of BV or control IgG-MMAE. It is filed as cell-based, human. The note with it: CD3/CD28 beads, 4-5 days. On the procedure:
CD4^+ T cells, isolated from healthy donor PBMC (Astarte Biologics, Bothell Wash.) were used to generate inducible T regulatory cells (iTregs). iTreg differentiation was performed over 1-2 weeks in 6-well tissue culture plates at 37° C. Cells were incubated with CD3/CD28 MACS iBead particles (Miltenyi biotec) at a 1:32 bead/cell ratio, in 2-3 ml of X-VIVO 15 media (Lonza) containing 1L-2 (50 ng/ml), TGFβ (50 ng/ml), and a 1:100 dilution of Lipid-Mixture 1 (Sigma-Aldrich). iTregs were evaluated for FoxP3 and CD30 expression by FACS analysis on an Attune NXT flow cytometer (Life Technologies). Following differentiation, individual donor iTreg populations ranged between 20-80% FoxP3^+ and 40-70% CD30^+.
To evaluate the effect of brentuximab vedotin (BV), and anti-CD30 antibody drug-conjugate on iTreg viability, cells were driven to proliferate in vitro in the presence of BV or control antibody drug-conjugate (IgG-MMAE). Briefly, iTregs were mixed with CD3/CD28 beads (8:1) in RPMI 10% FCS and were distributed at approximately 2.0×10^4 cells/well into a 96-well round-bottom plate. A titration of BV or control IgG-MMAE was added to replicate wells at the concentrations listed, for a final volume of 200 μl, and plates were incubated at 37° C. for 4-5 days. […]

The test system of assay [4] is CD25hi CD127lo T regulatory cells. In words: activated peripheral blood Treg depletion in vitro. The format is cell-based, human. The note with it: four separate donors, CD3/CD28 beads+IL-2, 4-5 days; FIG. 3A. The procedure:
(§1) CD25^hi CD127^lo T regulatory cells or CD8^+ T cells, enriched from peripheral blood derived leukoreduction system (LRS) chambers, were plated with CD3/CD28 beads+IL-2 in round-bottom 96-well tissue culture plates for 4-5 days with a titration of BV or control IgG-MMAE. On the final day of the assay, cells were stained as described above (viability dye and αCD30-PE antibody) and evaluated by flow cytometry.

The test system of the next assay is iTregs and CD8+ T cells. In words: iTreg / CD8+ T cell co-culture suppression assay. The format is cell-based, human. The note with it: iTregs:CD8+ T cells 1:2, CD3/CD28 beads, four days, increasing concentrations, two donors; FIG. 2C, 2D. On the procedure: As shown in FIG. 2A and FIG. 2B, increasing the iTreg/CD8^+ T cell ratio, for each donor, further abrogated T cell expansion, confirming suppressive function. To evaluate the effect of BV on iTreg suppression in vitro, co-culture suppression assays were performed. iTregs and CD8^+ T cells were mixed at a 1:2 ratio and combined with CD3/CD28 beads. Replicate wells were treated with a titration of BV or control IgG-MMAE. After four days of culture, viable iTregs and CD8^+ T cells were quantified by flow cytometry.

Assay [5] deals with human T regulatory cells and CD8+ T cells. In words: xeno-GVHD model, human T cell subtypes in spleen. The format is in vivo, NSG mice.
In assay [6] the test system is peripheral blood T cell subsets. The assay can be described thus: immunophenotyping of peripheral blood in classical Hodgkin lymphoma patients after BV. The format is in vivo, human. From the text:
The effects of BV on circulating immune cells has not previously been fully elucidated. Sixty-two patients adult patients with classical Hodgkin lymphoma (cHL) that had relapsed or was refractory to frontline chemotherapy were enrolled in a study to evaluate treatment with BV. Patients were excluded if they previously received prior salvage therapy, including salvage radiotherapy, for refractory cHL; BV or any immuno-oncology therapy affecting the PD-1, CTLA4, or CD137 pathways; and/or allogeneic or autologous stem cell transplant (ASCT). BV was administered to the patients at a dose of 1.8 mg/kg on Day 1 and the patients were assessed on Day 8. Immunophenotyping of peripheral blood by flow cytometry was performed by Q2 Solutions on heparinized whole blood. Cell pellets, resulting from plasma banking, were sent to Adaptive for T Cell Receptor β (TCRβ) sequencing. Peripheral blood mononuclear cells were isolated from CPT tubes, frozen, and then analyzed in batches by Caprion using their intracellular cytokine staining platform following peptide stimulation.

The subject of another assay is CD8+ T cells. In words: activated peripheral blood CD8+ T cell depletion in vitro. It is filed as cell-based, human. The note with it: up to 10 μg/ml of BV, CD3/CD28 beads+IL-2, 4-5 days; FIG. 3B. The procedure:
as §1

On to “cAC10: chimeric IgG1 monoclonal antibody that specifically binds CD30”, for which, in the assay on CD30+ cell lines, the “growth of CD30+ cell lines in vitro” value is “induces growth arrest”. For the same molecule, the antitumor activity result in assay [1] is “pronounced antitumor activity”.

For rhodamine 123 [rhodamine-123], in assay [2], the “clearance of intracellular rhodamine-123 in CD8+ T cells” value was “rapid clearance” and the “rhodamine-123 efflux in T regulatory cells among T cell subsets” value is given as “slowest”.

B1: brentuximab vedotin (conjugate)
VH: QIQLQQSGPEVVKPGASVKISCKASGYTFTDYYITWVKQKPGQGLEWIGWIYPGSGNTKYNEKFKGKATLTVDTSSSTAFMQLSSLTSEDTAVYFCANYGNYWFAYWGQGTQVTVSA
VL: DIVLTQSPASLAVSLGQRATISCKASQSVDFDGDSYMNWYQQKPGQPPKVLIYAASNLESGIPARFSGSGSGTDFTLNIHPVEEEDAATYYCQQSNEDPWTFGGGTKLEIK
For the molecule B1, the “numbers of CD30+ iTregs” value in [3] (FIG. 1B) is listed as “enhanced depletion”. Also, the “total viable iTreg numbers” value in assay [3] (five separate donors, FIG. 1A) is “dose-dependent reduction”. The “viable CD30+ Treg numbers” value in [4] was “dose-dependent reduction”. For the same molecule, in the assay with iTregs and CD8+ T cells, the “CD8+ T cell accumulation in co-culture” value is “augmented” and the “viable iTregs in co-culture” value is reported as “selectively reduced”. The “human T regulatory cells in the spleen” value in assay [5] (single i.p. 3 mg/kg on day 5, spleens on day 12, compared to PBS alone, FIG. 4A) is “significantly reduced”. Moreover, the “splenic CD8+ T cells” value in [5] (single i.p. 3 mg/kg on day 5, spleens on day 12, FIG. 4B) is on record as “unaffected by BV treatment with a trend toward increased numbers”. The “CD8+ T cell/Treg ratio in vivo” value in [5] (single i.p. 3 mg/kg on day 5, spleens on day 12, FIG. 4C) is “increased”. The “reduction of CD30+ regulatory T cells compared to reduction of other CD30+ T helper cells” value in assay [6] (1.8 mg/kg on Day 1, assessed on Day 8) is recorded as “more significantly”. In addition, the “T helper cell subset populations including regulatory T cells” value in assay [6] (1.8 mg/kg on Day 1, assessed on Day 8, peripheral blood, FIG. 5) was “reduction”. Besides, the “number of CD30-expressing regulatory T cells in the peripheral blood” value in assay [6] (1.8 mg/kg on Day 1, assessed on Day 8, FIG. 7) is recorded as “significantly reduced”. For the same molecule, in assay [6] (single treatment, versus baseline, FIG. 7), the “number of CD30+ T regulatory cells as compared to CD30− T regulatory cells” value is given as “reduced”. In addition, the “depletion of CD30+ CD8+ T cells” value in the assay with CD8+ T cells is recorded as “did not deplete”.
